Measurements published in patent US20140308685A1 (SHINO TEST, published 2014).

Experiments:
[1] = biological target: T1, partial-length periostin (R1/R2 regions) (Homo sapiens (Human), UniProt Q15063 111-378, limits assumed); experiment: ELISA on immobilized antigen, POD-labeled anti-mouse IgG, A405
T1 sequence: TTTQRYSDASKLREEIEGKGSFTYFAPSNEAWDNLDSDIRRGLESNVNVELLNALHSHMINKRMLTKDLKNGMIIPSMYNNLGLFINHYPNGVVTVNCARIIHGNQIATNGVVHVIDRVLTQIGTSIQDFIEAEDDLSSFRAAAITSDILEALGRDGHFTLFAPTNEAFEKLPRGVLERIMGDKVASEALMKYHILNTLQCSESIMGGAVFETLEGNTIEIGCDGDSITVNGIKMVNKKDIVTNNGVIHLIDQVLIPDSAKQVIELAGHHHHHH

[2] = biological target: T2, partial-length periostin (R2 region) (Homo sapiens (Human), UniProt Q15063 235-378, limits assumed); experiment: as above
T2 sequence: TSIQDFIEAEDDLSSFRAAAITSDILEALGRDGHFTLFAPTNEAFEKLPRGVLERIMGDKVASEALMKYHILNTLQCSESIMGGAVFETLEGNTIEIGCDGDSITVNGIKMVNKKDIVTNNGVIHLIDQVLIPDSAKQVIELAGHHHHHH

[3] = biological target: T3, partial-length periostin (R4 region) (Homo sapiens (Human), UniProt Q15063 496-631, limits assumed); experiment: as above
T3 sequence: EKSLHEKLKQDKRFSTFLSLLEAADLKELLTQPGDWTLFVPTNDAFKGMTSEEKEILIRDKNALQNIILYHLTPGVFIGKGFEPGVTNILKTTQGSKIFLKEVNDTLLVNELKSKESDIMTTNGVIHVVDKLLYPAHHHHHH

[4] = biological target: T4, partial-length periostin (EMI region) (Homo sapiens (Human), UniProt Q15063 22-110, limits assumed); experiment: as above
T4 sequence: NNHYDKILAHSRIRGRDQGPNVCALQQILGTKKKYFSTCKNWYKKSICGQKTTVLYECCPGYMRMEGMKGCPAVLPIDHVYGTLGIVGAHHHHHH

[5] = biological target: T5, partial-length periostin (C-terminal region) (Homo sapiens (Human), UniProt Q15063 632-836, limits assumed); experiment: as above
T5 sequence: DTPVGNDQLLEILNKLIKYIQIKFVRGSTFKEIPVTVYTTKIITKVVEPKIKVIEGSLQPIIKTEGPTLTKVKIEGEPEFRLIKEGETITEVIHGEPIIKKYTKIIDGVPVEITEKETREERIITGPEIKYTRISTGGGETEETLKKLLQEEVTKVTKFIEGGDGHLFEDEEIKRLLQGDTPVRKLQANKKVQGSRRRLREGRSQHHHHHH

[6] = biological target: T6, periostin (S2 recombinant periostin protein tagged with V5/His) (Homo sapiens (Human), UniProt Q15063 22-836, limits assumed); experiment: ELISA on immobilized antigen (5 ug/mL), A405; bound if difference to control well is 0.2 or more
T6 construct: also called osteoblastic specific factor 2; OSF2
T6 sequence: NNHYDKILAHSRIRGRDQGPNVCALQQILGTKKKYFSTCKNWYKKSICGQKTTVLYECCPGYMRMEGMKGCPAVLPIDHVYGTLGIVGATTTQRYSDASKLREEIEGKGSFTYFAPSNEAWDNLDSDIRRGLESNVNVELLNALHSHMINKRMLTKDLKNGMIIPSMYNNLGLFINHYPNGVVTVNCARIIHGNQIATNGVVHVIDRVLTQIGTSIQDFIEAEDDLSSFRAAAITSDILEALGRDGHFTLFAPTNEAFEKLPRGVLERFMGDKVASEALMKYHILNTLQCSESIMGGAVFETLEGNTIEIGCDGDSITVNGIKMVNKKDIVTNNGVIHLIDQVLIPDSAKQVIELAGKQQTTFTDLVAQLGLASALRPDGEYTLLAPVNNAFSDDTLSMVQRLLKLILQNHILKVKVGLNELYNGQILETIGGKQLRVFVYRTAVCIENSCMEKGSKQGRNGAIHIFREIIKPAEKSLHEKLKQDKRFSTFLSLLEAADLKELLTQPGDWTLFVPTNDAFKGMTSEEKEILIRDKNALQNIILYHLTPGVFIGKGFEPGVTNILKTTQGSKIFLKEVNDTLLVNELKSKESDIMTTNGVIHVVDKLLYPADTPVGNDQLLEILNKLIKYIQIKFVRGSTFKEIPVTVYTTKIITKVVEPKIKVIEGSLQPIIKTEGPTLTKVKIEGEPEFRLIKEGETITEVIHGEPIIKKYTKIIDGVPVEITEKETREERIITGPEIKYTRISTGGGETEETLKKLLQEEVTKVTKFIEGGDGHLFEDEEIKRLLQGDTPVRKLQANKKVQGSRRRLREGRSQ
Description: (8) Subsequently, the absorbance in each well of the microtiter plate in (7) at 405 nm was measured with a spectrophotometer.
Based on the measurement results of the absorbance, if the difference between the obtained measured values of absorbance in the well immobilizing periostin or a partial-length periostin and the measured values of absorbance in the control well (into which phosphate-buffered saline was poured instead of periostin or partial-length periostins) is 0.2 or more, an anti-periostin monoclonal antibody was determined to have bound to the periostin or the partial-length periostin immobilized to the well of the microtiter plate.

B1: anti-periostin monoclonal antibody (SS19D) (antibody, V domains shown)
VH: QVQLQQPGSELVKPGASVKLSCKASGYTFTSYWMHWVKQSPGQGLEWIGEINPSNGRTNYNEKFKTKATLTVDKSSSTAYMQLNSLTSEDSAVYYCVRGDEGFAYWGQGTLVTVSA
VL: NIVLTQSPASLAVSLGQRATISCSASESVDSYGRSFIHWFQQKPGQPPKLLIYLASYLESGVPARFSGSGSRTDFTLTIDPVEADDAATYYCHQNNEDPPTFGGGAKLEIKR
binding result [1]: no binding
binding result [2]: no binding
binding result [3]: no binding
binding result [4]: no binding
binding result [5]: no binding
binding result [6]: binds
